Patent publication US20240034813A1 (Janssen / Centocor, published 2024)

What was measured:
[1] = molecular target: T1, recombinant human EGFR/ErbB1/HER1 with C-terminal His tag, Cy5-labeled (human, UniProt P00533 25-645, Cy5 label (reacted with Cy5 Mono NHS Ester; sites not stated)); assay: competitive TR-FRET (Eu-amivantamab/Cy5-EGFR), EC50 ratio vs Reference Material; Ex. 2 Formulation 3 (acetate), T0, 25 C table
T1 construct: Commercial protein; also called Cy5-EGFR; Cy5-labeled EGFR antigen; not shown: C-terminal His tag
Text: (§1) In this procedure, varying concentrations of unlabeled bispecific EGFR-cMet antibody sample compete with donor fluorophore (Europium (Eu) chelate) labeled bispecific EGFR-cMet antibody for binding to an acceptor fluorophore (Cy5)-labeled EGFR antigen. Excitation of the donor fluorophore results in a transfer of energy to the bound acceptor fluorophore (FRET process). The resultant FRET is detected by emission of light at 665 nm using a microplate reader capable of measuring time-resolved fluorescence. Sample dose response curves are compared to the RM.
(§2) EGFR Binding Materials and Methods. Certified commercial EGFR, a recombinant human EGFR/ErbB1/HER1 with C-terminal His tag is reacted with certified commercial Cy5 Mono NHS Ester to produce Cy5-labeled EGFR. Validated bispecific EGFR-cMet antibody is reacted with certified commercial Europium (Eu) chelate to produce Eu-labeled bispecific EGFR-cMet antibody. […] Fluorescence is then measured by spectrophotometry at 665 nm, plotted against antibody concentration and analyzed by a four-parameter logistic model. The antibody concentration required to obtain half of the maximum fluorescence response (EC50) is determined for RM, assay control and samples. The potencies of assay control and samples are calculated based on the ratio of the sample (or control) and RM EC50 values and reported as a percentage activity relative to the RM.

[2] = molecular target: T1, recombinant human EGFR/ErbB1/HER1 with …; assay: competitive TR-FRET (Eu-amivantamab/Cy5-EGFR), EC50 ratio vs Reference Material; Ex. 12 drug product with rHuPH20, 6 months at 5 C
Text: as §1, §2

[3] = molecular target: T1, recombinant human EGFR/ErbB1/HER1 with …; assay: competitive TR-FRET (Eu-amivantamab/Cy5-EGFR), EC50 ratio vs Reference Material; Ex. 11 drug product, 0 months, 40 C table
Text: as §1, §2

[4] = molecular target: T1, recombinant human EGFR/ErbB1/HER1 with …; assay: competitive TR-FRET (Eu-amivantamab/Cy5-EGFR), EC50 ratio vs Reference Material; Ex. 11 drug product, 0 months, 5 C table
Text: as §1, §2

[5] = molecular target: T2, recombinant cMet/HGFR with c-terminal His-tag, Cy5-labeled (UniProt P08581 25-932, limits assumed, Cy5 label (reacted with Cy5 Mono NHS Ester; sites not stated)); assay: competitive TR-FRET (Eu-amivantamab/Cy5-c-MET), EC50 ratio vs Reference Material; Ex. 3 acetate formulation, 6 months at 25 C, untreated control
T2 construct: Commercial protein; also called Cy5-c-MET; Cy5-labeled c-MET antigen; not shown: C-terminal His-tag
Text: as §1, with “(Cy5)-labeled c-MET” for “(Cy5)-labeled EGFR”, “the Reference Material (RM).” for “the RM.”
as §2, with “c-MET Binding” for “EGFR Binding”, “commercial cMet,” for “commercial EGFR,”, “recombinant cMet/HGFR” for “recombinant human EGFR/ErbB1/HER1”, “with c-terminal His-tag” for “with C-terminal His tag”, “Cy5-labeled c-MET.” for “Cy5-labeled EGFR.”, “produce Eu labeled” for “produce Eu-labeled”

[6] = molecular target: T2, recombinant cMet/HGFR with c-terminal …; assay: competitive TR-FRET (Eu-amivantamab/Cy5-c-MET), EC50 ratio vs Reference Material; Ex. 3 acetate formulation with PS80, T0
Text: as §1, with “(Cy5)-labeled c-MET” for “(Cy5)-labeled EGFR”, “the Reference Material (RM).” for “the RM.”
as §2, with “c-MET Binding” for “EGFR Binding”, “commercial cMet,” for “commercial EGFR,”, “recombinant cMet/HGFR” for “recombinant human EGFR/ErbB1/HER1”, “with c-terminal His-tag” for “with C-terminal His tag”, “Cy5-labeled c-MET.” for “Cy5-labeled EGFR.”, “produce Eu labeled” for “produce Eu-labeled”

[7] = molecular target: T1, recombinant human EGFR/ErbB1/HER1 with …; assay: competitive TR-FRET (Eu-amivantamab/Cy5-EGFR), EC50 ratio vs Reference Material; Ex. 2 Formulation 3 (acetate), 3 months at 5 C
Text: as §1, §2

[8] = molecular target: T1, recombinant human EGFR/ErbB1/HER1 with …; assay: competitive TR-FRET (Eu-amivantamab/Cy5-EGFR), EC50 ratio vs Reference Material; Ex. 11 drug product, 3 months at 25 C
Text: as §1, §2

[9] = molecular target: T1, recombinant human EGFR/ErbB1/HER1 with …; assay: competitive TR-FRET (Eu-amivantamab/Cy5-EGFR), EC50 ratio vs Reference Material; Ex. 11 drug product, 9 months at 5 C
Text: as §1, §2

EGFR Binding % activity relative to RM [1]: 103%
EGFR Binding activity relative to Reference Material (%) [2]: 89%
EGFR Binding activity relative to Reference Material (%) [3]: 89%
EGFR Binding activity relative to Reference Material (%) [4]: 89%
cMET Binding % activity relative to RM [5]: 99%
cMET Binding % activity relative to RM [6]: 94%
EGFR Binding % activity relative to RM [7]: 87%
EGFR Binding activity relative to Reference Material (%) [8]: 71%
EGFR Binding activity relative to Reference Material (%) [9]: 90%
B1: amivantamab (bispecific antibody, human IgG1, kappa)
heavy 1: not shown
light 1: not shown
heavy 2: not shown
light 2: DIQMTQSPSSVSASVGDRVTITCRASQGISNWLAWFQHKPGKAPKLLIYAASSLLSGVPSRFSGSGSGTDFTLTISSLQPEDFATYYCQQANSFPITFGQGTRLEIKRTVAAPSVFIFPPSDEQLKSGTASVVCLLNNFYPREAKVQWKVDNALQSGNSQESVTEQDSKDSTYSLSSTLTLSKADYEKHKVYACEVTHQGLSSPVTKSFNRGEC
notes: The samples tested were high concentration (160 mg/mL) formulations, fresh or stored or stressed; also called JNJ-61186372; bispecific EGFR-cMet antibody
